Source: patent US20220056119A1 (Regeneron, published 2022)
Values belong to the binder of their own block, whether it stands above or below them.

Columns and labels:
Activin A [1] = molecular target: T1, Activin A (human, UniProt P08476 311-426); assay: cell-based or functional assay
T1 sequence: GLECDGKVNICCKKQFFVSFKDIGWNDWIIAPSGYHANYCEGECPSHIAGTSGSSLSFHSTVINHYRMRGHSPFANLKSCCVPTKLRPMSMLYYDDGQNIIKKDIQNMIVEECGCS

Activin A [2] = molecular target: T1, Activin A; assay: SPR, 5 nM Activin A + 7.50 nM binder over hActRIIA-hFc surface
Experimental: (§1) The binding signal (RU) was measured at 150 seconds after the start of the injection, and this signal was subtracted by the measured RU value for a negative control reference surface to determine the specific binding signal.

Activin A [3] = molecular target: T1, Activin A; assay: SPR, 5 nM Activin A + 30 nM binder over Follistatin-288 surface
Experimental: as §1

Activin A [4] = molecular target: T1, Activin A; assay: SPR, 5 nM Activin A + 1.88 nM binder over Follistatin-288 surface
Experimental: as §1

Activin A [5] = molecular target: T1, Activin A; assay: SPR, 5 nM Activin A + 7.5 nM binder over Follistatin-288 surface
Experimental: as §1

Activin A [6] = molecular target: T1, Activin A; assay: SPR, 5 nM Activin A + 3.75 nM binder over Follistatin-288 surface
Experimental: as §1

Activin A [7] = molecular target: T1, Activin A; assay: SPR, 5 nM Activin A + 0.94 nM binder over Follistatin-288 surface
Experimental: as §1

Activin A [8] = molecular target: T1, Activin A; assay: SPR, 5 nM Activin A + 1.88 nM binder over hActRIIA-hFc surface
Experimental: as §1

Activin A [9] = molecular target: T1, Activin A; assay: SPR, 5 nM Activin A + 3.75 nM binder over hActRIIA-hFc surface
Experimental: as §1

Activin A [10] = molecular target: T1, Activin A; assay: SPR, 5 nM Activin A + 15 nM binder over hActRIIA-hFc surface
Experimental: as §1

Activin A [11] = molecular target: T1, Activin A; assay: SPR, 5 nM Activin A + 60 nM binder over Follistatin-288 surface
Experimental: as §1

Activin A [12] = molecular target: T1, Activin A; assay: SPR, 5 nM Activin A + 30 nM binder over hActRIIA-hFc surface
Experimental: as §1

Activin A [13] = molecular target: T1, Activin A; assay: SPR, 5 nM Activin A + 0 nM binder (no inhibitor) over Follistatin-288 surface
Experimental: as §1

Activin A [14] = molecular target: T1, Activin A; assay: SPR, 5 nM Activin A + 0.00 nM binder (no inhibitor) over hActRIIA-hFc surface
Experimental: as §1

Activin AC = molecular target: T2, Activin AC (human, UniProt P55103 237-352); assay: cell-based or functional assay
T2 sequence 1: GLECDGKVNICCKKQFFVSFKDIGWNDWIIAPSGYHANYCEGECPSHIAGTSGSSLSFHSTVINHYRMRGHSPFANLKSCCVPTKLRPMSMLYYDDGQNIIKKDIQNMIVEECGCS
T2 sequence 2: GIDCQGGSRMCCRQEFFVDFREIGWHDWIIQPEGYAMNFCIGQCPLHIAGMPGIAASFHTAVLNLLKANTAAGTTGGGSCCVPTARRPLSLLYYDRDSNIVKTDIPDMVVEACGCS

Activin AB = molecular target: T3, Activin AB (human, UniProt P08476 311-426; P09529 293-407); assay: cell-based or functional assay
T3 chain 1: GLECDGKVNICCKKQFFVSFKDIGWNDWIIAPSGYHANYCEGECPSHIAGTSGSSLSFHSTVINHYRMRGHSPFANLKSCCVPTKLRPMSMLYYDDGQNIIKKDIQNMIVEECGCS
T3 chain 2: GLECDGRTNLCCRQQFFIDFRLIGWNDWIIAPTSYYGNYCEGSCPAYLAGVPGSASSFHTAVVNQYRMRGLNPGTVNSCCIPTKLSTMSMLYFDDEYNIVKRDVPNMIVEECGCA

Activin A [15] = molecular target: T1, Activin A; assay: SPR, 5 nM Activin A + 0.94 nM binder over hActRIIA-hFc surface
Experimental: as §1

Activin A [16] = molecular target: T1, Activin A; assay: SPR, 5 nM Activin A + 15 nM binder over Follistatin-288 surface
Experimental: as §1

Activin A [17] = molecular target: T1, Activin A; assay: SPR, 5 nM Activin A + 60 nM binder over hActRIIA-hFc surface
Experimental: as §1

B1: H4H10437P2 (antibody, human IgG4, V domains shown)
VH: EVQLVESGGGLVQPGRSLRLSCAASGFTFDDYAMHWVRQAPGKGLEWVSGISWNSGSIGYADSVKGRFTISRDNAKNSLYLQMNSLRAEDTALYYCAKDIMGNWDYFYGMDVWGQGTTVTVSS
VL: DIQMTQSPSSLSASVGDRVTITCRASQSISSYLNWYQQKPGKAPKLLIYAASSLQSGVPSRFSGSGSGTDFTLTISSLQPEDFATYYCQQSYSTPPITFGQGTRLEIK
IC50, inhibition of 100 pM Activin A in A204/CAGAx12-Luc luciferase bioassay (Activin A [1]): 2.9e-10 M

B3: H4H10426P (antibody, human IgG4, V domains shown)
VH: EVQLVESGGNLVQSGRSLRLSCTASGFAFDDFAMHWVRQVPGKGLEWVSGISWNSDTIGYADSVKGRFTISRDNAQNSLFLQMDSLRAEDTALYYCVKDMVRGLIGYYYYGMDVWGQGTTVTVSS
VL: EIVLTQSPAILSLSPGERAILSCRASQSIYTYLSWYQQTPGRAPRLLIYETSSRATGIPARFIGSGSGTDFTLTISSLEPEDFAFYYCQHRSDWPPTFGQGTKLEIK
IC50, inhibition of 100 pM Activin A in A204/CAGAx12-Luc luciferase bioassay (Activin A [1]): 2.3e-10 M

B5: H4H10430P (antibody, human IgG4, V domains shown)
VH: EVQLVESGGGLVQPGRSLRLSCKASGFAFDDFAMHWVRQAPGKGLEWVSGIVWNSGDIGYADSVKGRFTISRDNAKNSLYLQLNSLRTEDTALYFCVKDMVRGLMGFNYYGMDVWGQGTTVTVSS
VL: EIVLTQSPATLSLSPGERATLSCRASQTISTYLVWYRQRPGQAPSLLIYDASNRATDIPARFSGSGSGTDFTLTISSLEPEDFAVYYCQQRSNWPITFGQGTRLEIK
notes: also called mAb1
% bound RU w/ no inhibitor (Activin A [2]): 3% | % bound RU w/ no inhibitor (Activin A [3]): 1% | % bound RU w/ no inhibitor (Activin A [4]): 59% | % bound RU w/ no inhibitor (Activin A [5]): 1% | % bound RU w/ no inhibitor (Activin A [6]): 15% | % bound RU w/ no inhibitor (Activin A [7]): 79% | % bound RU w/ no inhibitor (Activin A [8]): 62% | % bound RU w/ no inhibitor (Activin A [9]): 19% | % bound RU w/ no inhibitor (Activin A [10]): 2% | % bound RU w/ no inhibitor (Activin A [11]): 1% | % bound RU w/ no inhibitor (Activin A [12]): 2% | % bound RU w/ no inhibitor (Activin A [13]): 100% | % bound RU w/ no inhibitor (Activin A [14]): 100% | IC50, inhibition of 100 pM Activin A in A204/CAGAx12-Luc luciferase bioassay (Activin A [1]): 6.1e-11 M | IC50, inhibition of 4 nM Activin AC in A204/CAGAx12-Luc luciferase bioassay (Activin AC): 0.93 nM | IC50, inhibition of 30 pM Activin AB in A204/CAGAx12-Luc luciferase bioassay (Activin AB): 1e-10 M | % bound RU w/ no inhibitor (Activin A [15]): 81% | % bound RU w/ no inhibitor (Activin A [16]): 1% | % bound RU w/ no inhibitor (Activin A [17]): 2%

B6: H4H10432P2 (antibody, human IgG4, V domains shown)
VH: EVQLVESGGGLVQPGRSLTLSCAVSGFTFDDHAMHWVRQAPGKGLEWVSGISWNSVSIGYADSVKGRFTISRDNAKTSLYLQMNSLRVDDTALYYCVQDLNDILTGYPLFDFWGQGTLVTVSS
VL: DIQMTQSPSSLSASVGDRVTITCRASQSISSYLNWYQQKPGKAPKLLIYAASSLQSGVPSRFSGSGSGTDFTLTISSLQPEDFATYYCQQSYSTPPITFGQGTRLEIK
IC50, inhibition of 100 pM Activin A in A204/CAGAx12-Luc luciferase bioassay (Activin A [1]): 1.1e-10 M | IC50, inhibition of 4 nM Activin AC in A204/CAGAx12-Luc luciferase bioassay (Activin AC): 2.8 nM | IC50, inhibition of 30 pM Activin AB in A204/CAGAx12-Luc luciferase bioassay (Activin AB): 8e-10 M

B7: H4H10423P (antibody, human IgG4, V domains shown)
VH: QVQLQQSGPGLLKPSQTLSLTCAISGDSVSSNSAAWSWIRQSPSRGLEWLGRTYYRANWFNDYALSVKSRITINPVTSTNHFSLQLHSVTPEDTAVYYCAREGALGYYFDSWGQGTLVTVSS
VL: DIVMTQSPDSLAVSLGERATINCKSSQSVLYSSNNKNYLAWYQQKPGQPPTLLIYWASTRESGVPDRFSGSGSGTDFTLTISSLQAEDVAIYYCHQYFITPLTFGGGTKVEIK
% bound RU w/ no inhibitor (Activin A [2]): 110% | % bound RU w/ no inhibitor (Activin A [3]): 94% | % bound RU w/ no inhibitor (Activin A [4]): 122% | % bound RU w/ no inhibitor (Activin A [5]): 97% | % bound RU w/ no inhibitor (Activin A [6]): 103% | % bound RU w/ no inhibitor (Activin A [7]): 120% | % bound RU w/ no inhibitor (Activin A [8]): 114% | % bound RU w/ no inhibitor (Activin A [9]): 111% | % bound RU w/ no inhibitor (Activin A [10]): 112% | % bound RU w/ no inhibitor (Activin A [11]): 93% | % bound RU w/ no inhibitor (Activin A [12]): 114% | % bound RU w/ no inhibitor (Activin A [13]): 100% | % bound RU w/ no inhibitor (Activin A [14]): 100% | IC50, inhibition of 100 pM Activin A in A204/CAGAx12-Luc luciferase bioassay (Activin A [1]): 2e-10 M | % bound RU w/ no inhibitor (Activin A [15]): 112% | % bound RU w/ no inhibitor (Activin A [16]): 96% | % bound RU w/ no inhibitor (Activin A [17]): 116%

Further lines, results first:

IC50, inhibition of 100 pM Activin A in A204/CAGAx12-Luc luciferase bioassay (Activin A [1]): 5.3e-11 M
B2: H4H10445P2 (antibody, human IgG4, V domains shown)
VH: QVQLQESGPGLVKPSETLSLICSVSGGSFSSHFWSWIRQPPGKGLEWIGYVLYSGGTNYNPSLKSRVTISVDTSKNQFFLKLSSVTAADTADYYCARAISGITFGGIIVPGSFDIWGQGTMVTVSS
VL: not shown

IC50, inhibition of 100 pM Activin A in A204/CAGAx12-Luc luciferase bioassay (Activin A [1]): 5.8e-11 M
B4: H4H10452P2 (antibody, human IgG4, V domains shown)
VH: QVQLQESGPGLVKPSETLSLTCTVSGGSFSSHFWNWIRQSPGRGLEWIGYIYYSGGTNYNPSFKSRVTMSVDTSKNQFSLKLSSVTAADTAVFYCARARSGITFGGVLVPGSFDIWGQGTMVTVSS
VL: not shown
